Laboratory results reported in patent US20240060046A1.

Biological target: CD20 on CD20+ human Burkitt's lymphoma cell lines (Ramos, Raji) (human) (UniProt P11836)
Experiment: cell-based or functional assay

Sequence of UniProt P11836 (P11836 whole entry): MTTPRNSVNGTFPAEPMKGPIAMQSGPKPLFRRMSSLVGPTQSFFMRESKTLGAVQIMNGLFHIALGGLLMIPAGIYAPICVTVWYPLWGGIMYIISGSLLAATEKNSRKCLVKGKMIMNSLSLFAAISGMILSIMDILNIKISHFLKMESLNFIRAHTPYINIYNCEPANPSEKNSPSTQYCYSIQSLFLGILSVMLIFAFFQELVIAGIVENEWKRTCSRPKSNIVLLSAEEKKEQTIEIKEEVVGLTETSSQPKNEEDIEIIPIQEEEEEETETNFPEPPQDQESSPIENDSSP

lysis of Raji target cells at the end of 72 hour co-culture, AB-101 combined with rituximab, E:T 1:1: 90%
lysis of Ramos target cells at the end of 72 hrs co-culture, AB-101 combined with rituximab, E:T 1:1: 80%
Substance: Rituximab (Mabthera or Rituxan) (antibody)
Viable Raji cells (%), long-term ADCC, AB-101 + RTX, 24 hrs (mean of 9 AB-101 batches): 23.9%
Viable Raji cells (%), long-term ADCC, AB-101 + RTX, 48 hrs (mean of 9 AB-101 batches): 11.7%
Viable Raji cells (%), long-term ADCC, AB-101 + RTX, 72 hrs (mean of 9 AB-101 batches): 10.1%
Viable Ramos cells (%), long-term ADCC, AB-101 + RTX, 24 hrs (mean of 9 AB-101 batches): 47.6%
Viable Ramos cells (%), long-term ADCC, AB-101 + RTX, 48 hrs (mean of 9 AB-101 batches): 28.1%
Viable Ramos cells (%), long-term ADCC, AB-101 + RTX, 72 hrs (mean of 9 AB-101 batches): 19%
